# Measured values published in publication PMC4726246.
# Assays:
# [1] = ratio of TEVC current to surface expression; conditions: glycan lost; control: wild type
# [2] = TEVC, co-expression in Xenopus oocytes, +40 mV; conditions: glycan lost; control: TASK-3 WT alone
Protein,other: conductivity (current / surface expression ratio) [1],other: current of co-expressed TASK-3 [2]
TASK-1: N53A (protein) parent chain: MKRQNVRTLALIVCTFTYLLVGAAVFDALESEPELIERQRLELRQQELRARYNLSQGGYEELERVVLRLKPHKAGVQWRFAGSFYFAITVITTIGYGHAAPSTDGGKVFCMFYALLGIPLTLVMFQSLGERINTLVRYLLHRAKKGLGMRRADVSMANMVLIGFFSCISTLCIGAAAFSHYEHWTFFQAYYYCFITLTTIGFGDYVALQKDQALQTQPQYVAFSFVYILTGLTVIGAFLNLVVLRFMTMNAEDEKRDAEHRALLTRNGQAGGGGGGGSAHTTDTASSTAAAGGGGFRNVYAEVLHFQSMCSCLWYKSREKLQYSIPMIIPRDLSTSDTCVEQSHSSPGGGGRYSDTPSRRCLCSGAPRSAISSVSTGLHSLSTFRGLMKRRSSV,no change,no change
TASK-1: S55A (protein) parent chain: MKRQNVRTLALIVCTFTYLLVGAAVFDALESEPELIERQRLELRQQELRARYNLSQGGYEELERVVLRLKPHKAGVQWRFAGSFYFAITVITTIGYGHAAPSTDGGKVFCMFYALLGIPLTLVMFQSLGERINTLVRYLLHRAKKGLGMRRADVSMANMVLIGFFSCISTLCIGAAAFSHYEHWTFFQAYYYCFITLTTIGFGDYVALQKDQALQTQPQYVAFSFVYILTGLTVIGAFLNLVVLRFMTMNAEDEKRDAEHRALLTRNGQAGGGGGGGSAHTTDTASSTAAAGGGGFRNVYAEVLHFQSMCSCLWYKSREKLQYSIPMIIPRDLSTSDTCVEQSHSSPGGGGRYSDTPSRRCLCSGAPRSAISSVSTGLHSLSTFRGLMKRRSSV,no change,
